From PMC8160712

Molecular target: Recombinant protein G from Escherichia coli (group G Streptococci) (UniProt P06654)
Assay: total internal reflected imaging ellipsometry (TIRIE); protein G immobilised on EDC/NHS-activated MUA gold surface (100 μg/mL in the whole-process run); antibody flowed over for 20 min, rinsed with PBST; real-time grayscale signal

| Substance | TIRIE signal increase | TIRIE signal increment with protein G |
| --- | --- | --- |
| Anti-CD9 antibody [MEM-61] | 900 grayscale | 640 |
| Anti-CD63 antibody [MEM-259] | 900 grayscale | 650 |
